From patent US20200247894A1 (Regeneron, published 2020)
Numbering of substitutions follows the chain as printed.

B1: H4H12863P (antibody, human IgG4 S228P, kappa, V domains shown)
VH: QVQLVESGGGVVQPGRSLRLSCTASGFTFRSYDMYWVRQAPGKGLEWVSVITYDGNNKYYADSVKGRFTISRDNSKNTLFLQMSSLRPEDTAVYYCAKRGLIWVGESFDYWGQGTLVTVSS
VL: DIQMTQSPSTLSASVGDRVTITCRASQSINSWLAWYQQKPGKAPNLLIYKASSLESGVPSRFSGSGSGTEFTLTISSLQPDDFATYYCQQYKSYSWTFGQGTKVEIKR
notes: anti-IL2Rγ monoclonal antibody expressed with human IgG4 Fc
B2: H4H12874P (antibody, human IgG4 S228P, kappa, V domains shown)
VH: QVQLVESGGGVVQPGRSLRLSCAASGFNFRNFGMHWVRQAPGKGLEWVAGILYDGSSKYYADSVKDRFTISRDNSKNTLFLQMNSLRAEDTAMYYCAKEEDTAMVPFDSWGPGTLVTVSS
VL: DIQLTQSPSFLSASVGDRVTITCWASQGISSYLAWYQQKPGKAPTLLIYAASTLQSGVPSRFSGSGSGTEFTLTISSLQPEDFASYYCQQLKSYPLTFGGGTKVEIKR
notes: as for B1
B3: H4H12858P (antibody, human IgG4 S228P, kappa, V domains shown)
VH: EVQLVESGGDLVQPGGSLRLSCTASGFIFRNYAMNWVRQAPGKGLEWLSGILGSNDNTYYVDSVKGRFTISRDNSRNTLYLQMNSLRAEDSAVYYCAKGDAGGFDYWGQGTLVTVSS
VL: DVVMTQSPLSLPVILGQPASISCRSSQSLVSSDGNTYLNWFQQRPGQSPRRLIYKVSNRDSGVPDRFSGSGSGTDFTLKISRVEAEDVGAYYCMQGSYWPPTFGQGTKLEIKR
notes: anti-IL2Rγ monoclonal antibody expressed with human IgG4 Fc; also called REGN9433
B4: H4H12922P2 (antibody, human IgG4 S228P, kappa, V domains shown)
VH: QVQLVESGGGVVKPGGSLRLSCAASGFTFSNSGIHWVRQAPGKGLEWVALISYAGSNKYYADSVKGRFTISRDNSKNTLSLQMNSLRAEDTAVYYCAKEVWTGTYDSFDMWGRGTMVTVSS
VL: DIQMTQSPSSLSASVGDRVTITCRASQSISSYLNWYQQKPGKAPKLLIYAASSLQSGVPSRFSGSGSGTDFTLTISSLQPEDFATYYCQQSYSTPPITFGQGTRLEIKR
notes: anti-IL2Rγ monoclonal antibody expressed with human IgG4 Fc; also called REGN7256
B5: H4H12871P (antibody, human IgG4 S228P, kappa, V domains shown)
VH: QVQLQESGPGLVKPSQTLSLTCTVSGGSITSGGYYWSWIRQYPGQGLEWIGYIYYSGKTYYNPSFTSRITISVDTSKKQFSLKMSSVTAADTAVYYCARAGFTSSNGWFDPWGQGTLVTVSS
VL: DIQMTQSPSSLSASVGDRVTITCRASQNIRSYLNWYQQKPGKAPKLLIYSASSLQSGVPSRFSGSGSGTDFTLTISSLQPEDFPTYYCQQTYSSPWTFGPGTKVEIKR
notes: anti-IL2Rγ monoclonal antibody expressed with human IgG4 Fc; also called REGN9434
B6: H4H12924P2 (antibody, human IgG4 S228P, kappa, V domains shown)
VH: EVQLVESGGGLVQPGRSLRLSCAASGFTLEDYAMHWVRQAPGKGLEWVSGISWNRGSTGYADSVKGRFTISRDNAKNSLYLQMTSLRAEDTALYYCAKGFYSMDVWGQGTTVTVSS
VL: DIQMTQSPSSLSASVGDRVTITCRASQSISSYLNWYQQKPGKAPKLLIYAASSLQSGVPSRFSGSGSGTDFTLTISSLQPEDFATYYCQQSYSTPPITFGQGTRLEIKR
notes: as for B1
B7: H4H12859P (antibody, human IgG4 S228P, kappa, V domains shown)
VH: QVQLVQSGAEVKKPGASVRVSCKASGYTFTDYDIHWVRQAPGHGLEWMGWINPNSGGTNYAQKFQGRVTMTRDTSISTVYMDLSRLRSDDTAVYYCARADYSSSYYYYGMDVWGQGTTVTVSS
VL: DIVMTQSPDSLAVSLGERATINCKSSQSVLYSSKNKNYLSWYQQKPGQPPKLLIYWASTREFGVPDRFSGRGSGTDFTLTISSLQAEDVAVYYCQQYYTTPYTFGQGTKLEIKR
notes: as for B1
B8: H4H12913P2 (antibody, human IgG4 S228P, kappa, V domains shown)
VH: EVQLVESGGGVVRPGGSLRLSCAASGFTFDDYGMSWVRQAPGKGLEWISSINRNGGSADYADSVKGRFTISRDNAKNSLFLQMSSLRAEDTALYHCASGEFRFDYWGQGTLVTVSS
VL: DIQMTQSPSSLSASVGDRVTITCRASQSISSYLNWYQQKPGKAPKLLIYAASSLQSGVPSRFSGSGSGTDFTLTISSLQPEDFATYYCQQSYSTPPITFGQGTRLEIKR
notes: as for B1

Columns and labels:
[1] = molecular target: T1, Macaca fascicularis IL2Rγ extracellular domain expressed with a C-terminal myc-myc-hexahistidine tag (Macaca fascicularis); assay: SPR Biacore 4000, mAb captured by anti-hFc, 37C, dissociation in PBS-T pH 7.4
T1 construct: also called mfIL-2Rg-MMH; mfIL-2RG-MMH
T1 chain: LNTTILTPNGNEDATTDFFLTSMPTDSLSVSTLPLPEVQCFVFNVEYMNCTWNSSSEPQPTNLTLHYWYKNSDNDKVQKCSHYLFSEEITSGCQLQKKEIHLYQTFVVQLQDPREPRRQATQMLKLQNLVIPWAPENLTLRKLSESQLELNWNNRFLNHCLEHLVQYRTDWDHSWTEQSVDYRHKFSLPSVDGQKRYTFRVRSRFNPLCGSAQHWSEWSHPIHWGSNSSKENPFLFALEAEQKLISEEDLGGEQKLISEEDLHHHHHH
Description: (§1) The dissociation rate constant (kd) for binding of IL-2Rγ reagents to purified anti-IL2Rγ monoclonal antibodies was determined using a real-time surface plasmon resonance based Biacore 4000 biosensor platform. […] The CM5 Biacore sensor surface derivatized by amine coupling with monoclonal mouse anti-human Fc antibody (GE, Catalog # BR-1008-39) was used to capture anti-IL2Rγ monoclonal antibodies expressed with human IgG4 Fc. All the IL2Rγ reagents were expressed with a C-terminal myc-myc-hexahistidine tag (subsequently referred to with a -MMH suffix). […] The dissociation of bound IL-2Rg-MMH was performed in PBS-T-pH7.4 or PBS-T-pH6.0 running buffers for 6 minutes.
(§2) Dissociation rate constants (kd) in two running buffers were determined by fitting the real-time binding sensorgrams to a 1:1 binding model using Scrubber 2.0c curve-fitting software. Values of dissociation rate for […] mAb binding to hIL-2RG-MMH and mfIL-2RG-MMH at 25° C. and 37° C. in PBS-T-pH7.4 and PBS-T-pH6.0 is shown in Table 2-1 through Table 2-8.

[2] = molecular target: T1, Macaca fascicularis IL2Rγ extracellular …; assay: SPR Biacore 4000, mAb captured by anti-hFc, HBS-ET, 25C
Description: (§3) Equilibrium dissociation constants (KD values) for IL-2Rγ binding to purified anti-IL2Rγ monoclonal antibodies were determined using a Biacore 4000 instrument equipped with a real-time surface plasmon resonance biosensor. All binding studies were performed in 10 mM HEPES, 150 mM NaCl, 3 mM EDTA, and 0.05% v/v Surfactant Tween-20, pH 7.4 (HBS-ET) running buffer at 25° C. and 37° C. The Biacore sensor surface was first derivatized by amine coupling with a monoclonal mouse anti-human Fc antibody (GE, # BR-1008-39) to capture anti-IL2Rγ monoclonal antibodies.
(§4) The dissociation of monoclonal antibody bound IL2Rγ reagents were monitored for 8-10 minutes in HBS-ET running buffer. Kinetic association (kₐ) and dissociation (kd) rate constants were determined by fitting the real-time sensorgrams to a 1:1 binding model using Scrubber 2.0c curve fitting software. Binding dissociation equilibrium constants (KD) and dissociative half-lives (t_{1/2}) were calculated from the kinetic rate constants as: […]

[3] = molecular target: T2, Human IL2Rγ extracellular domain expressed with a C-terminal myc-myc-hexahistidine tag (human); assay: as above
T2 construct: also called hIL-2Rg-MMH; hIL-2RG-MMH
T2 chain: T1 chain with A14T, T16A, S22T, R141H, S228T
Description: as §3, §4

[4] = molecular target: T2, Human IL2Rγ extracellular domain …; assay: SPR Biacore 4000, mAb captured by anti-hFc, HBS-ET, 37C
Description: as §3, §4

[5] = molecular target: T1, Macaca fascicularis IL2Rγ extracellular …; assay: SPR Biacore 4000, mAb captured by anti-hFc, 37C, dissociation in PBS-T pH 6.0
Description: as §1, §2

| Binder | 100 nM Ag Bound (RU) [1] [RU] | koff [1] [s⁻¹] | t1/2 [1] [min] | 100 nM Ag Bound [2] [RU] | Kd [2] [nM] | koff [2] [s⁻¹] | kon [2] [M⁻¹ s⁻¹] | t1/2 [2] [min] | 100 nM Ag Bound [3] [RU] | Kd [3] [nM] | koff [3] [s⁻¹] | kon [3] [M⁻¹ s⁻¹] | t1/2 [3] [min] | 100 nM Ag Bound [4] [RU] | Kd [4] [nM] | koff [4] [s⁻¹] | kon [4] [M⁻¹ s⁻¹] | t1/2 [4] [min] | 100 nM Ag Bound (RU) [5] [RU] | koff [5] [s⁻¹] | further results |
| --- | --- | --- | --- | --- | --- | --- | --- | --- | --- | --- | --- | --- | --- | --- | --- | --- | --- | --- | --- | --- | --- |
| B1 | 177 | 0.000606 | 19 | 81 | 1.91 | 0.00036 | 189000 | 32 | 91 | 1.7 | 0.000384 | 226000 | 30 | 77 | 4.11 | 0.00151 | 367000 | 8 | 141 | 0.00208 | t1/2 [5]: 6 min |
| B2 | 92 | 0.000541 | 21 | 50 | 4.28 | 0.000306 | 71500 | 38 | 57 | 3.57 | 0.000305 | 85200 | 38 | 52 | 10.4 | 0.00125 | 120000 | 9 | 82 | 0.00255 | t1/2 [5]: 5 min |
| B3 | 143 | 0.000542 | 21 | 58 | 2.36 | 0.000269 | 114000 | 43 | 67 | 1.23 | 0.000316 | 257000 | 37 | 57 | 4.52 | 0.00174 | 386000 | 7 | 134 | 0.00155 | t1/2 [5]: 7 min |
| B4 | 185 | 0.000693 | 17 | 76 | 1.64 | 0.000386 | 235000 | 30 | 79 | 1.3 | 0.000386 | 297000 | 30 | 44 | 2.58 | 0.00105 | 407000 | 11 | 146 | 0.00344 | t1/2 [5]: 3.4 min |
| B5 | 143 | 0.00102 | 11 | 72 | 5.19 | 0.000905 | 174000 | 13 | 77 | 5.03 | 0.001 | 199000 | 12 | 61 | 10.6 | 0.00266 | 250000 | 4 | 141 | 0.00227 | t1/2 [5]: 5 min |
| B6 | 133 | 0.00267 | 4 | 73 | 6.58 | 0.00165 | 251000 | 7 | 78 | 5.38 | 0.00174 | 322000 | 7 | 26 | 18 | 0.0157 | 871000 | 0.7 | 126 | 0.0124 | t1/2 [5]: 0.9 min |
| B7 | 47 | 0.00397 | 2.9 | 17 | 126 | 0.00507 | 40300 | 2.3 | 27 | 87.6 | 0.00321 | 36600 | 4 | 18 | 187 | 0.0129 | 69000 | 0.9 | 31 | 0.0123 | t1/2 [5]: 0.9 min |
| B8 | 76 | 0.000894 | 13 | 34 | 14.1 | 0.000633 | 44900 | 18 | 42 | 11.2 | 0.000691 | 62000 | 17 | 24 | 33.4 | 0.00348 | 104000 | 3.3 | 54 | 0.00296 | t1/2 [5]: 4 min |
